Reference: FireProtDB (doi:10.1021/bi061295h)

Settings: Equus caballus, pH 7.4, 25 °C, GdnHCl, reversible: Yes

Cytochrome c wild type, P00004, sequence (P00004 whole entry): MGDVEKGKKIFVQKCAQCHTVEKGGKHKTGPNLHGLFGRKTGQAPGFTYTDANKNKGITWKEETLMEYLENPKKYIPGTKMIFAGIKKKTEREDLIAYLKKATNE

With Cytochrome c wild type, P00004 the denaturant m value (CD, Tris 20 mM) was 2.8 kcal/mol/M, the unfolding free energy (CD, Tris 20 mM) was 7.4 kcal/mol and the denaturant m value (SUPREX, Sodium phosphate 20 mM) was 3 kcal/mol/M.
